Experimental data taken from the supplement of paper PMC9942255.

Tested on: Bacillus subtilis DB104 (SP-AmyQ fusion secretion)
Experiment: AmyQ secretion efficiency, weighted average sort bin (1 = best secretion, 10 = worst) (bin number (weighted average, 1-10)); higher = lower secretion efficiency
Procedure, shortened: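 With fluorescein-starch as substrate, a B. subtilis DB104 library expressing mature AmyQ fused to designed signal peptides (integrated at amyE) was encapsulated at about 0.3 cells per ~65 nL alginate bead. After about 13 h at room temperature, beads were nile red stained, and occupied beads were sorted by large-particle flow cytometry into 10 equally populated bins by green/red fluorescence ratio. Illumina sequencing of the amplicons in each bin was used to calculate the secretion score, which is the read-frequency-weighted average bin number, normalised to beads per bin, with low-abundance sequences left out.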

| Sequence | AmyQ secretion efficiency |
| --- | --- |
| MTGGVILAAFILVGSTLGAFSFSSDASAKHV | 3.83 |
| MKIRKQRGYTGLSFGMLISAVPALAAGT | 6.92 |
| MKRIRIPMTLALGAALTIAPLSFKSAEEN | 6.9 |
| MKKTSSFNFSSTAFLVFLSVVLVTTVFLVKQQESVAQAKQL | 2.65 |
| MKLSVKIAGVLTVAAAAMTAKMYGTAKGN | 5.59 |
| MKWMCSICCAAVLLAGGAMQAEAV | 3.69 |
| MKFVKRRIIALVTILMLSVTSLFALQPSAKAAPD | 2.11 |
| MKKKLAAGLTASAIVGTTLVVTPWEAATI | 6.58 |
| MRMLWRSKRRCKLALTLAPCAQAAEP | 7.06 |
| MKLAKRVSALTPSTTLAITWKAKEL | 5.85 |
| MTMLLAAGIIGLLTVSIASPSFAAEK | 5.35 |
| MPYLKRVRRRRRRGLFMSLFAVTATASAQTG | 6.28 |
| MMKKGLLAGALTATVLFRKCAVRVPGIISPKTAEAASQ | 6.57 |
| MKKVMLATALFLGLTPAGANAARR | 4.33 |
| MRRVCFLAALIMAFTLPNSVYAQKP | 2.21 |
| MLKKIALTLCPAIVGSLLFFTAPFSAHVS | 5.46 |
| MKKKKKRIITATTAVVLGSTLFAGAASAQSI | 1.46 |
| MTIIIAIIAAVIVIAALITFNVRNASPG | 7.45 |
| MRNLTKTSLLLAGLCTAAQMVFVTHASAATD | 2.35 |
| MHLIRAAGAVCLAVVLIAGCRFNEDQHQAEGDED | 6.29 |
| MNVLLSALLLLLFAFEPSASGKKL | 7.25 |
| MKKRKRKILLSSALSFGMLISAVPALAAGT | 3.32 |
| MKSRTIWTIILGALCIAVAYTLTKSQAGASSS | 8.18 |
| MKRKLLSSLAISALSLGSAPTASFAAES | 3.3 |
| MKKRFSLIMMTGLLFGLTSPAFAASN | 2.36 |
| MKWMCSICCAAVLLAGEDEDEDAQAEAV | 8.04 |

| Sequence | AmyQ secretion efficiency |
| --- | --- |
| MRKKRTVITCVMAASLTLGSLLPAGYATAKED | 6.07 |
| MKLSVKIAGVLTVAAAAMTAKMYATDKGN | 5.75 |
| MMIKQCTICLSLLVFGTTAAHAEET | 2.71 |
| MKKAFILSAAAAVGLFTFGGVQQASVKEL | 6.39 |
| MKLSVKIAGVLTVAAAAMTAKMYATIKGN | 6.84 |
| MLKKVILAAFILVGSTLGAFSFSSDASAARK | 2.12 |
| MPYLKRVLLLLVTGLFMSLFAVTATASGQTG | 1.24 |
| MKVCQKSIVRFLVSLIIGTFVITSVPFMANAQSD | 3 |
| MSSTITFVLTMCFLGLILFVPTALADNS | 2.16 |
| MKKGIRFLLVSFVLFFALSTGITGVQAAPA | 2.35 |
| MLTKRLLTIYIMLLGLIAWFPGAAQAATP | 2.42 |
| MKKRLIGFLVLVPALIMSGITLMEANKK | 7.17 |
| MFNRLFRVCFLAALIMAFTLPNSVYAQKR | 2.62 |
| MSLYTVIASILLSFLSVLSGGHHESKAFPV | 5.37 |
| MRPVFPLILSAVLFLSCFFGARQTEPSASKR | 5.61 |
| MHLIRAAGAVCLAVVLIAGCRKNSVQHQAEGENT | 5.67 |
| MKKKQVMLALTAAAGLGLTALHSAPAKKAAPL | 5.87 |
| MKRLLSTLLIGIMLLTFAPSSFAKQD | 2.65 |
| MTGMLGSMLLITAGILVFFAVVVKDVFAAGL | 4.32 |
| MRFTKVVGFLSVLGLAAVFPLTAQAAPK | 1.91 |
| MKRIRIPMTLALGAALTIAPLSFASAAPK | 1.85 |
| MKRFSTAYLLLGILCSAAVFLIPQPGRALGAEV | 2.89 |
| MRPVFPLILSAVLFLSCFFGARQTEASISKR | 3 |
| MFKKHTISLLIIFLLASAVLAKPIEAHTK | 2.17 |
| MMKKGLLAGALTATVLFGTCAVDVPGIISPKTIEAASQ | 4.02 |
| MRRKKRKAVLLSLIMLIAGFLISFSFQM | 7.79 |

| Sequence | AmyQ secretion efficiency |
| --- | --- |
| MTGLKMLSMLTVMIASLFIFSSQALAVQY | 1.83 |
| MRPVFPLILSAVLFLSCFEGAEQTEASASKR | 3.25 |
| MSIWIVLFLVLIAAAISIFVYVSTGSEK | 6.85 |
| MLCVMMLLFSAIASFPVSCQAKDQ | 5.97 |
| MKKKRKKFVAVAALSTTAFGAHASAKEI | 6.1 |
| MKRILLSSALSFGMLISAVPALAAGT | 2.79 |
| MKIRKILLSSALSFGMLEEDDPALAAGT | 2.69 |
| MRSKKLLFTLWISLLFALTLIFTMAFSNMSAQAAGK | 2.87 |
| MKKQIITATTAVVLGSTLFAGAAAVASAQSI | 3.9 |
| MGLGKKLSVAVAASFMSLSISLPGAVGPGFPTFPSVQAAEG | 1.21 |
| MKIRKILLSSALSFGMLISAVPALAAKK | 1.84 |
| MTTKYSKQSKQLLCFMPAAKIEHTQASLL | 7.85 |
| MKKLLAAGIIGLLTVSIASPCFAAEK | 2.42 |
| MKKWIYVVLVLSIAGIGGFSAFGPVTAVHAASS | 2.96 |
| MIVSRQTRQRIIVFLSVIQPQPS | 6.7 |
| MKKLIQVMIMFTLLLTMAFSADAADS | 4.44 |
| MGTLTTLTSLLLAGLCTAAQMVFVTHASAEES | 3.24 |
| MKKIVSILFMFGLVMFFFTFTAIGVFAADK | 4.52 |
| MKKLSVAVAASFMSLSISLPGVQAAEG | 1.57 |
| MKLKKRVSMSSMFLVALTMCGGLFVTPAKAVKT | 1.95 |
| MKLAKRVSALTPSTTLAITAKIKEL | 7.25 |
| MTKKFTIMSAWFLPLVCVLLISGWLAPAASASAQTT | 1.82 |
| MKLRKVLTGSVLSLGLLVSASPNFATSP | 5.36 |
| MKSAKSVSALTPSTTLAITAKAKEL | 6.91 |
| MRPVFPLILSAVLFLSCFFGARQTEASVSKR | 2.77 |
| MNFKKTVVSALSISALALEEEGVASAHEI | 7.3 |

| Sequence | AmyQ secretion efficiency |
| --- | --- |
| MGQGKGSVFLILLLMLTLVVAPKEKAEAASS | 1.82 |
| MTKKAWFLPLVCVLLISGWLAPAASRSAQTT | 5.9 |
| MHLIRAAGAVCLAVVLIAGCRFNEDQHQAENENT | 5.95 |
| MKKRITYSLLALLAVVAFAFFISSKAKAAEA | 5.19 |
| MPIKKKVMMCLAVTLVFGSMSFPTLTNDGGFKE | 5.45 |
| MKKSQYFIVFICFFVLFSVHPIAQAAADS | 4.87 |
| MKKWKYRRRVVLVLSIAGIGGFSVHAASS | 7.42 |
| MTMLRKIIGWILLLCIIPLFAFTVIPVVTVASGKEV | 4.51 |
| MLCVMMLLFSAIASFPVSAQCKDQ | 6.94 |
| MPIKKKVMMCTSGTTSFGSMSFPTLTNSGGFKE | 7.09 |
| MKKWMALTSGLFLAAAVLLCLMVPQQIQGASS | 4.17 |
| MKTKTFLFIFSAILTLSIFAPNETFAQTA | 2.73 |
| MKLKKRVSMYTQALTMCGGLFVTPAKAVKT | 5.95 |
| MKLKKRVSMFLVALTMCGGLFVTPVKAVKT | 2.64 |
| MNFKKTVRKRRSISALALSVSGVASAHEI | 7.55 |
| MNKPTKLFSTLALAAGMTRRKKRKAGTIHAQQP | 6.79 |
| MLKRTSFVSSLFISSAVLLLPSGQAHAQSA | 1.64 |
| MKLWMRKTLVVLFTIVTFGLVSPPAALMIDKP | 2.83 |
| MKKWIYVVLVLSIAGIGGKRKKKKVHAASS | 7.49 |
| MKKWIYVVLVLSIAGIGGFSNHAASS | 6.81 |
| MKKIGLLFMLCLAALKKRRFPAQQADAAEA | 7.17 |
| MKKRLIAPMFSSLLSAASLAFFAMSGSAQAAAY | 3.7 |
| MKKELLASLVLCLSLKRLVSTNKVFAATT | 7.51 |
| MRSYIKVLTMCFLGLILFVEEDALADNS | 2.58 |
| MKRLLVSLRVWMVFLMNWVTPDRKTAADAVY | 5.95 |
| MKKRLIAPMLLSAASLAFFAMSGSSVTAGAQAAAY | 6.18 |

| Sequence | AmyQ secretion efficiency |
| --- | --- |
| MRFTKVVGFLSVLGLAAVAQAEKA | 5.78 |
| MKVLLSALLLLLFAFEPSASDKKL | 6.18 |
| MKKRLIAPMLLSAASLAFFAQEGSAQAAAY | 2.53 |
| MLTKRLLTIYIMLLGLIAWFPGAAQAAED | 2.99 |
| MKKWMASQKKSTQVLLCLMVPQQIQGASS | 7.24 |
| MLCVMMLLFSAIASFPVSAQLKDQ | 6.33 |
| MFKKLLLATSALTFSLSLVLPLDGHYKAQEV | 6.94 |
| MNKKYFVLIVCIIFTSALFPTFSSVTTAQG | 1.05 |
| MKKAFLVFLSVVLVTTVFLVKQQESVAQPKQL | 4.94 |
| MLKKIALTLCPAIVGSLLFFTAPQSAHVS | 5.63 |
| MFKKHTISLLIIFLLASAVLAKPIEAHTD | 1.8 |
| MISKKLWISLLFALTLIFTMAFSNMSAQAAGK | 1.95 |
| MKKWMAGLFLAAAVLLCLMVPQQCQGASS | 2.09 |
| MKRFSTAYKQQRQQCSAAVFLIGAPSRALGAEV | 7.51 |
| MKWMCSICCAAVLLAGGAPTFAQAEAV | 3.68 |
| MKRTWNGCGQGQLSVLLVAGSVPFHAEAKKP | 2.05 |
| MKKGYSTTSTGVLVTTVFLVKQQESVAQAKQL | 7.95 |
| MKRLFMKASLVLFAVVFVFAVKGAPTKAETH | 2.27 |
| MKNMSCKLVVSVTLFFSFLTIGPLAHAQED | 2.36 |
| MKSKWMSGLLLVAVGFSFTQVMFHAGET | 6.46 |
| MKQGKFSVFLILLLMLTLVVAPKEKCEAASS | 1.62 |
| MLKKKWMVGLLAGCLAAGGFSYNAFMTEN | 6.25 |
| MKKSQYFIVFICFFVLFSVHPIAAAGADS | 3.85 |
